One series has as its target T1, GST-HP1γ-Hinge (UniProt P23198 77-111).
T1 chain: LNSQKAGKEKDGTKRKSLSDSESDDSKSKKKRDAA
Kind of series: EMSA.

Another series addresses GST-HP1γ (UniProt P23198 11-183). Kind of series: EMSA. For orientation: Mobility shift assays separate free from complexed probe on a gel.

These results are taken from paper doi:10.1101/686790.

Chain of GST-HP1γ (P23198 11-183): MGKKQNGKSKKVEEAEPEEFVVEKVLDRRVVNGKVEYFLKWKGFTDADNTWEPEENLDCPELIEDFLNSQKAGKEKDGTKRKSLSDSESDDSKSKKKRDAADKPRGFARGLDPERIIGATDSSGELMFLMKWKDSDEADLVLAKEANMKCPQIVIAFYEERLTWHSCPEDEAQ

With GUGAGCUCCAGGCCAGUGAGAGACCCUGUCUCAA (ssRNA) [GAGAGA], the binding result in the series with GST-HP1γ-Hinge is “binds”.

As to UCUGGCACACAGCCACACGCUCAC (ssRNA) [CACACA], the binding result with GST-HP1γ-Hinge and in the series with GST-HP1γ was “binds” each time.

For the molecule CGCUUCGGGCUCGCCGCUCGCUUCC (ssRNA) [Scrambled], the binding result with GST-HP1γ-Hinge was “no binding”.
